Biological target: CFF–Myc
Test: co-IP; Fig. 5D: HEK293T lysates co-expressing HA–TNPO1, CFF–Myc and GFP–Rab8-wt, GFP–Rab8-QL, GFP–Rab8-TN or GFP; anti-Myc immunoprecipitation; blotted for TNPO1 and GFP chimeras

Sequence of HA–TNPO1 (Q92973 whole entry): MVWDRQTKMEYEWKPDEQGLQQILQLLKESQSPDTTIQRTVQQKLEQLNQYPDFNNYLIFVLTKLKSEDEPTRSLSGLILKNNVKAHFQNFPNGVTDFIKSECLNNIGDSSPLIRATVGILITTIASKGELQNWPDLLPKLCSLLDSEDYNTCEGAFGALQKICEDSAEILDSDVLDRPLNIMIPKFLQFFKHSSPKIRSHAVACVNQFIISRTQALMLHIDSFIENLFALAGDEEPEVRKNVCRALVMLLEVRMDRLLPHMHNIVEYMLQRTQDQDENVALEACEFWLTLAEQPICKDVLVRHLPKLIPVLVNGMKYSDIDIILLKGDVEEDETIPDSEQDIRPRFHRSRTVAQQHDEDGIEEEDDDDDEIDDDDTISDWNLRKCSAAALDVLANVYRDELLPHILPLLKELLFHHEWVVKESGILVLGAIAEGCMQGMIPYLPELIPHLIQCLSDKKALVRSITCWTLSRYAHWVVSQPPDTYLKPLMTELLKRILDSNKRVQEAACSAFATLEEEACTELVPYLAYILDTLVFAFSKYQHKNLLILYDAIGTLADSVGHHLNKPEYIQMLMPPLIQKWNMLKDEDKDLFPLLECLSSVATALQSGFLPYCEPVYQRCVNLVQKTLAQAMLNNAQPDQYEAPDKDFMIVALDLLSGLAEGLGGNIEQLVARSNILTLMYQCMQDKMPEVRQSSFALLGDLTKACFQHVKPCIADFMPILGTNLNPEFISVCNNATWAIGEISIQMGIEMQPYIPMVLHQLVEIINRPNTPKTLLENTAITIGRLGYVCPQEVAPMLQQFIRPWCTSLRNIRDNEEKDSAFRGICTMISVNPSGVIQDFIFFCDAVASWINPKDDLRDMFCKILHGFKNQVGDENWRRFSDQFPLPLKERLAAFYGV

fold more TNPO1 co-immunoprecipitated with Rab8-TN co-expressed than with Rab8-QL or Rab8-wt: 3 fold
Substance: HA–TNPO1 (from UniProt Q92973 1-898) (natural protein)
